Laboratory results reported in patent US20250019453A1 (SYNTHEKINE, published 2025).

T1: hIL2Rg ECD antigen (human, UniProt P31785 23-262)
T1 construct: The immunogen was the ECD fused to human IgG1 hinge and Fc; also called ECD of IL2Rg (human); human IL-2Rγ
T1 sequence: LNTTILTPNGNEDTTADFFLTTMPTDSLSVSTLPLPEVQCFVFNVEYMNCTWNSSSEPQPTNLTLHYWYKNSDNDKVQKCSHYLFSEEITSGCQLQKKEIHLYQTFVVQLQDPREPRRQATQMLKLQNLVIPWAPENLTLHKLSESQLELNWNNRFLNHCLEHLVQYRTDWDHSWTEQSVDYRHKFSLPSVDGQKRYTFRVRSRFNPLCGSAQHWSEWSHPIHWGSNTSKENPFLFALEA

B1: hIL2Rg_VHH-5 (VHH)
VHH: QVQLQESGGGSVQAGGSLRLSCAASGFSFSSYPMTWARQAPGKGLEWVSTIASDGGSTAYAASVEGRFTISRDNAKSTLYLQLNSLKTEDTAMYYCTKGYGDGTPAPGQGTQVTVSS
notes: As a his-tagged phage clone periplasmic extract
B2: hIL2Rg_VHH-18 (VHH)
VHH: QVQLQESGGGLVQPGGSLRLSCAASGFTFSSYPMTWARQAPGKGLEWVSTIASDGGSTAYAASVEGRFTISRDNAKSTLYLQLNSLKTEDTAMYYCTKGYGDGTPAPGQGTQVTVSS
notes: as for B1
B3: hIL2Rg_VHH-10 (VHH)
VHH: QVQLQESGGGSVQAGGSLRLSCAASGSIYSSAYIGWFRQAPGKKREGVAGIYTRDGSTAYADSVKGRFTISQDSAKKTVYLQMNSLKPEDTAMYYCAAGRRTKSYVYIFRPEEYNYWGQGTQVTVSS
notes: as for B1
B4: hIL2Rg_VHH-17 (VHH)
VHH: QVQLQESGGGLVQPGGSLRLSCAASGFTFSNAHMSWVRQAPGKGREWISSIYSGGSTWYADSVKGRFTISRDNSKNTLYLQLNSLKTEDTAMYYCAENRLHYYSDDDSLRGQGTQVTVSS
notes: as for B1
B5: hIL2Rg_VHH-12 (VHH)
VHH: QVQLQESGGGSVQAGGSLRLSCAASGFTFSNAHMSWVRQAPGKGREWISSIYSGGSTWYADSVKGRFTISRDNSKNTLYLQLNSLKTEDTAMYYCAENRLHYYSDDDSLRGQGTQVTVSS
notes: as for B1
B6: hIL2Rg_VHH-11 (VHH)
VHH: QVQLQESGGGSVQAGGSLRLSCAASGFTFSSAHMSWVRQAPGKGREWIASIYSGGGTFYADSVKGRFTISRDNAKNTLYLQLNSLKTEDTAMYYCATNRLHYYSDDDSLRGQGTQVTVSS
notes: as for B1
B7: hIL2Rg_VHH-6 (VHH)
VHH: QVQLQESGGGAVQAGGSLRLSCAASGFTFSNAHMSWVRQAPGKGREWISSIYSGGSTWYADSVKGRFTISRDNSKNTLYLQLNSLKTEDTAMYYCAENRLHYYSDDDSLRGQGTQVTVSS
notes: as for B1
B8: hIL2Rg_VHH-16 (VHH)
VHH: QVQLQESGGGLVQPGGSLRLSCVASGFTFSNAHMSWVRQAPGKGREWISSIYSGGSTWYADSVKGRFTISRDNSKNTLYLQLNSLKTEDTAMYYCAENRLHYYSDDDSLRGQGTQVTVSS
notes: as for B1
B9: hIL2Rg_VHH-9 (VHH)
VHH: QVQLQESGGGSVQAGGSLRLSCTASGFTFDDSDMGWYRQAPGGECELVTISSDGSTYYADSVKGRFTISQDNAKNTVYLQMNSLKPEDTAVYYCAAEPRGYYSNYGGRRECNYWGQGTQVTVSS
notes: as for B1
B10: hIL2Rg_VHH-14 (VHH)
VHH: QVQLQESGGGSVQAGGSLKLSCTVSGFTADDSDMGWYRQGPGNECELVTISSDGSTYYADSVKGRFTISQDNAKNTVYLQMNSLKPEDTAVYYCAAEPRGYYSNYGGRRECNYWGQGTQVTVSS
notes: as for B1
B11: hIL2Rg_VHH-4 (VHH)
VHH: QVQLQESGGGSVQAGGSLRLSCTASGFTFDDSDMGWYRQAPGNECELVSTISSDGNTYYTDSVKGRFTISQDNAKNTVYLQMNSLGPEDTAVYYCAAEPRGYYSNYGGRRECNYWGQGTQVTVSS
notes: as for B1
B12: hIL2Rg_VHH-13 (VHH)
VHH: QVQLQESGGGSVQAGGSLRLSCTASRFIFDDSDMGWYRQAPGNECELVSTISSDGSTYYADSVKGRFTISRDNAKNTVYLQMNSLKPEDTAVYYCAAEPRGYYSNYGGRRECNYWGQGTQVTVSS
notes: as for B1

target: T1, hIL2Rg ECD antigen; test: PE-ELISA of phage clones

Does B1 bind?
Result: binds

Does B2 bind?
Result: binds

Does B3 bind?
Result: binds

Does B4 bind?
Result: binds

Does B5 bind?
Result: binds

Does B6 bind?
Result: binds

Does B7 bind?
Result: binds

Does B8 bind?
Result: binds

Does B9 bind?
Result: binds

Does B10 bind?
Result: binds

Does B11 bind?
Result: binds

Does B12 bind?
Result: binds
